Legend:
[1] = molecular target: T1, purified human PRL-3 (human, UniProt O75365 1-173, limits assumed); assay: KinExA kinetic exclusion assay, purified antibody and purified human PRL-3
T1 construct: Antigen of the KinExA analysis; also called PTP4A3; PRL-3 antigen

[2] = molecular target: T1, purified human PRL-3; assay: KinExA kinetic exclusion assay

T1 sequence (O75365 whole entry): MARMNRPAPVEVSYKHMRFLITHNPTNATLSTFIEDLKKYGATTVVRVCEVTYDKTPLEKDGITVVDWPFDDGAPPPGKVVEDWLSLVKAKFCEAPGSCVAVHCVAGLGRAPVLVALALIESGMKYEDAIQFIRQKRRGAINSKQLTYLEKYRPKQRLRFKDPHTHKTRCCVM

B1: PRL3-zumab (antibody, V domains shown)
VH: QVQLVQSGAEVKKPGASVKVSCKASGYTFTNYYMHWVRQAPGQLEWMGWIYPGNVNTYYNEKFRGRVTITADTSASTAYMLSSLRSEDTAVYYCASEEKNYPWFAYWGQGTLVTS
VL: DTQLTQSPSSLSASVGDRVTICKASQSVEDDGENYMNWYQQKPGSPKLLIYAASNLESGIPARFSGSGSGTDFTLTISSLPEDFATYYCQQSNEDPFTFGSGTKLEIK
Kd [1]: 6.29 pM | koff [2]: 6.68e-05 s⁻¹ | kon [2]: 1.06e+07 M⁻¹ s⁻¹
